Results: patent publication US5633451

These substances were tested against Dendroides canadensis thermal hysteresis proteins (purified THPs).

| Thermal Hysteresis (°C.) of a 4 mg/ml THP solution [°C.] | Substance |
| --- | --- |
| 3.98 | Tipula ice-nucleator protein PIN |
| 3.13 | Gelatin |
| 3.49 | Tipula lipoprotein ice-nucleator (LPIN) |
